Source: the RNAGym collection of RNA variant scans (doi:10.1021/acssynbio.7b00057)

B1: Pistol ribozyme (parent)
chain: GGGUCGUUGUUCCAUAAUCGCGUGGAUAUGGCACGCAAGUUUCUACCGGGCACCGUAAAUGUCCGACUGGAGCCGUUCGGGCGGCUAUAAACAGACCUCAGGCCCGAAGCGUGGCGGCACCUGCCGCCGGUGGUAAAAAAGAUCGGAAGAGCACACGUCU

Variants of: B1
Assay: aptazyme ON/OFF ratio, guanine; higher = stronger switching; co-transcriptional cleavage with and without guanine

| Variant | aptazyme ON/OFF ratio |
| --- | --- |
| U7G U8G G9A U10A U11A C13U | 1.18 |
| U7C U8G G9C U10C C12U | 1.27 |
| U7A G9C U10C U11A C12A C13U | 1.03 |
| U7A U8G U10A | 2.44 |
| U7G G9A U10A U11G C12U C13A | 1.07 |
| U7G U8C G9A U11G C12U | 1.3 |
| U7G U8A G9U U10A U11A C12G | 1.05 |
| G9U U10A U11C C13U | 1.17 |
| U7C U8C G9A U10C U11C C12G | 1.19 |
| U7C U8C G9U U10A U11C C12U | 1.19 |
| U11C C12G C13A | 1.46 |
| U7G U8A G9U U11C C13A | 1.1 |
| G9A U10A U11G C12U C13G | 1.28 |
| U7G U8C U10A U11C C12U | 1.03 |
| U10C C12G C13G | 1.09 |
| U7A U8G G9C U10A U11A C12U C13U | 1.57 |
| U7C U10C U11A C12A C13U | 1.3 |
| U7A U8C G9U U10A U11C C12U C13A | 1.1 |
| U7A U8A G9U U10G U11G C12A C13A | 1.24 |
| U7G U8A G9A U10G U11G C13A | 1.29 |
| U7G U8A G9C U11C C12U C13G | 1.08 |
| U7C U8G U10G U11C C12U C13U | 1.37 |
| U7A U8C G9A U10A C12A C13A | 1.2 |
| U7C G9A U10G U11C C12U C13U | 1.21 |

| Variant | aptazyme ON/OFF ratio |
| --- | --- |
| U8A G9C U10G C12U C13U | 1.22 |
| U7C U8C U10C U11G C12G | 1.18 |
| U7C U8A G9U U10C U11A C12U C13A | 1.11 |
| U8G G9C U11C C12U | 1.04 |
| U7A U8G G9A U10A U11A C12G C13G | 1.34 |
| U7C G9U U10G U11C C12A C13A | 1.17 |
| U7A G9A U11G C13G | 1.12 |
| U7A U8A U10G C12G C13A | 1.17 |
| U7G U8A G9U U10A U11G C12A C13U | 1.09 |
| U7C U10G U11C | 1.1 |
| U7A U8C G9A U10G U11C C13A | 1.06 |
| U7A U10G C12U | 1.29 |
| U7G U8A G9A C12U C13G | 1.1 |
| U7C G9C U10A U11A C12A C13U | 1.06 |
| U8G G9A U10G U11C C12U C13A | 1.06 |
| G9U U10A C12G C13U | 1.21 |
| G9C U10A U11C C12G C13U | 1.24 |
| U7A U8G G9C U11A C12U C13U | 1.46 |
| U7A U8A G9C U10A U11C C12U C13U | 1.11 |
| U7G U8C G9A U10A U11A C12U C13A | 1.13 |
| U7G U8A G9A U10A U11G C12G | 1.2 |
| U7C U8G G9A U10A U11A C13A | 1.12 |
| U7G U10A U11C | 1 |
| U7G U8C U10A U11C C12A C13A | 1.13 |

| Variant | aptazyme ON/OFF ratio |
| --- | --- |
| U7G U8C G9U U10A U11G C12U | 1.33 |
| U7C U8C G9U U11C C13A | 1.02 |
| G9C U10A U11G C12U C13U | 1.26 |
| U7C U8A G9U U10G U11G C13G | 1.04 |
| U7G U8C G9A U10G U11C C13U | 1.05 |
| U8G U11A C12A | 1.45 |
| G9C U10G U11G C12U C13U | 1.05 |
| U7G U8C G9C U10G U11A C12A C13G | 1.11 |
| U7G U8A G9A U11C C13A | 1.07 |
| G9C U10G U11C C12U | 1.08 |
| U7A U8C G9C U10C U11C C12G | 1.03 |
| U7C U8C G9A U10C U11C | 3.61 |
| U7C U8C G9U U10A U11G C12U C13A | 1.06 |
| U8A G9A U10G U11A C12U C13G | 1.07 |
| U7A G9U U10C U11C C12G | 1.05 |
| U7A U8C G9A U11G C12U C13U | 1.32 |
| U7G U8A G9C U11G C12A C13U | 1.06 |
| U7G U8C G9U U10A | 4.06 |
| U7G U8C G9A U10A U11C C12U C13A | 1.14 |
| U8G G9A U11A C12A C13G | 1.25 |
| U7A U8C U10C U11A C12U | 1.19 |
| U7A G9C U10C U11A C12G C13U | 1.25 |
| U7A U8G G9A U10G U11A C12U C13A | 1.7 |
| U7A U8A G9C U10G | 2.69 |

| Variant | aptazyme ON/OFF ratio |
| --- | --- |
| U7C U8C G9C C12A | 1.26 |
| U7C U8G G9U U11A C13A | 1.28 |
| G9C U11C C12A C13U | 1.16 |
| U7C G9U U10G U11G C12A | 1.22 |
| U7G U8C G9U U11G C13U | 1.41 |
| U7C G9A U10A U11C C13G | 1.04 |
| U7A U8G G9U U10G U11C C12G | 1.16 |
| U7G U8A U10A C12U C13A | 1.24 |
| U8A G9A U10A C12A C13G | 1.17 |
| U7C U8A G9C U10C U11G C12A C13U | 1.08 |
| U7G C12U C13G | 1.21 |
| U8C G9C U10G U11G C12G C13U | 1.11 |
| U8G G9C U10G U11C C12G C13U | 1.08 |
| U8G U10C U11C C12U C13G | 1.27 |
| U7A G9A U10C U11G | 1.31 |
| U7G U8G G9C U10C U11G C12G C13U | 1.07 |
| U7C U8A G9A U11A | 1.17 |
| U7A G9A U10C U11A C12A C13G | 1.05 |
| U7C G9U U10C U11A C13U | 1.16 |
| U7C U8C G9A C12A C13G | 1.05 |
| U7A U8G U11C C12A C13U | 1.19 |
| U7G U8G G9A U10G U11A C13G | 1.11 |
| U7A G9C U11A C13A | 1.02 |
| U7A G9A U10G U11C C12G C13A | 1.27 |

| Variant | aptazyme ON/OFF ratio |
| --- | --- |
| U8C G9C U11A C13U | 1.07 |
| U8G G9U U10G C12A | 1.04 |
| U7C G9U U10A U11G C12A C13A | 1.05 |
| U8A G9A U10G U11G C12A C13U | 1.3 |
| U8C G9U U11G | 1.48 |
| U7A U8A G9C U10A U11G C12U C13U | 1.14 |
| U7A U8C U10A C12G C13A | 1.09 |
| U7G U8C G9C U11C C12G C13A | 1.2 |
| U8G G9C C13U | 1.04 |
| U7A U8A G9A U10C C12A C13G | 1.03 |
| U8A G9A U10G U11C C12U C13G | 1.16 |
| U7C U8C G9C U10G U11G C12A C13G | 1.07 |
| U7C U8C G9C U10G U11G C12U | 1.11 |
| U7G U10C U11C C12G C13G | 1.08 |
| U11A C12U C13A | 1.36 |
| U8G G9C U11A C12G C13A | 1.08 |
| U7C U8C G9U U10C U11A C12G C13A | 1.13 |
| U7C U8G G9A U11C C12A C13A | 1.1 |
| U8A G9C U10A C12G | 1.17 |
| U7G U10G U11G C12A C13U | 1.13 |
| U8G U10C U11G C12U C13G | 1.15 |
| U8G G9U U11C C13U | 1.08 |
| U7A U8A G9U U10C C12U C13A | 1.19 |
| U7G G9A U10C C12U C13U | 1.19 |

| Variant | aptazyme ON/OFF ratio |
| --- | --- |
| U8A U10C U11G C12G C13A | 1.29 |
| U7C U8G G9A U11C C12G C13U | 1.1 |
| U7A U8A U10G U11C C12G C13A | 1.23 |
| U8A G9C U10A U11G C12U C13U | 1.14 |
| U8A G9U U10A U11G C12A C13A | 1.01 |
| U7A G9A U10C U11A C12U C13U | 1.22 |
| U7C U10C U11A | 2.11 |
| U7A G9U U10A U11G C12A C13G | 1.19 |
| U7G U8C G9A U10A C12A C13A | 1.23 |
| U7A U8G U10G U11G C12U | 1.42 |
| U7C U8A U10A C12G C13G | 1.22 |
| U7A U8C G9A U10A C12U | 1.17 |
| U7C U8C G9C U10A U11C C12A C13A | 1.09 |
| U7G G9U U11G C12U | 1.2 |
| U7A G9U U10G U11G C12A C13A | 1.11 |
| U7G U8A U10G C13A | 1.3 |
| U7G U8A U10C U11G | 2.09 |
| U7G U8C U10G C12G | 1.05 |
| U7A G9A U10C U11G C12A C13G | 1.24 |
| U8A G9A U10C U11A C12U | 1.19 |
| U7G U10A U11G C13U | 1.22 |
| U7C U8G G9U U10A U11G C12A C13A | 1.11 |
| U7C U8A G9A U10A C12U C13G | 1.14 |
| U7C U8C G9A U10A C12U | 1.69 |

| Variant | aptazyme ON/OFF ratio |
| --- | --- |
| C12U C13G | 1.29 |
| U7C C12U C13U | 1.05 |
| U7C U8C G9A U11A C12A C13U | 1.38 |
| U7A G9C U10A U11C C13G | 1.06 |
| U7A U8G G9U U10G U11C C12G C13G | 1.13 |
| U8A U10A C13G | 1.06 |
| U7G U8A G9A U10C C12A C13G | 1.06 |
| U7C G9U U11C C12U C13G | 1.05 |
| U8G U10G U11G C12U | 1.44 |
| U7G U8A G9U U10G U11C C13G | 1.04 |
| U7G U8G G9U U10C U11A C12G C13G | 1.15 |
| U7A U8C U10G U11A C13A | 1.12 |
| U7G U8G G9A U10C C12G C13A | 1.26 |
| U7C G9C U10G C12U C13G | 1.03 |
| U8C G9A U10A C12U C13A | 1.16 |
| U7G U8A G9C U11G C12U | 1.14 |
| U7G U8A U10C U11A C12A C13U | 1.39 |
| U8G U10C U11C C12U C13A | 1.14 |
| U7G U8A G9U U11G | 1.17 |
| U7G U8C G9C U10C U11C C12G C13U | 1.04 |
| U7A U8C U10C C12A C13G | 1.15 |
| U7C U8G G9U U10C U11A C13G | 1.24 |
| U8C G9C U10G U11A C12G C13G | 1.13 |
